In patent US20210371503A1 (UNIVERSITY OF COLOGNE, published 2021):
Numbering of substitutions follows the chain as printed.

B1: HbnC4t1p1_D5 (antibody, V domains shown)
VH: EVQLVESGGGLVQPGRSLRLSCAASGFTFDDYAMHWVRQAPGKGLEWVSGISWNSGSIGYADSVKGRFTISRDNAKNSLYLQMNSLRAEDTGLYYCAKDINYDSGGYHKNYFDYWGQGTLVTVSS
VL: DIQMTQSPSSLSASVGDRATITCRASQSISSYLNWYQEKPGKAPKLLIYAASSLQSGVPSRFSGSGSGTDFTLTISSLQPEDFATYYCQQSYSNPLTFGGGTKVEIK
B2: HbnC3t1p1_C6 (antibody, V domains shown)
VH: QMQLVQSGPEVKKPGTSVKVSCKASGFTFTSSAVQWVRQARGQRLEWIGWIVVGSGNTNYAQKFQERVTITRDMSTSTAYMELSSLRSEDTAVYYCAAPHCSSTICYDGFDIWGQGTMVTVSS
VL: not shown
B3: HbnC2t1p2_D9 (antibody, V domains shown)
VH: QVQLVESGGGVVQPGRSLRLSCAASGFTFSSYGMHWVRQAPGKGLEWVAVIWYDGRNKYYVDSVKGRFTISRDNSKNTLYLQISSLRAEDTAVYYCARAARRPVVTDTMAYYMDVWGKGTTVTVSS
VL: EIVLTQSPATLSLSPGERATLSCRASLSLSSYLAWYQQKPGQAPRLLIYDASNRATGIPARFSGSGSGTDFTLTISSLEPEDFAVYYCQQRSNWPPTWTFGQGTKAEIKR
B4: HbnC3t1p1_G4 (antibody, V domains shown)
VH: EVQLVESGGGLVQPGGSLRLSCAASGFTVSSNYMSWVRQAPGKGLEWVSVIYSGGSTFYADSVKGRFTISRDNSKNTLYLQMNSLRAEDTAVYYCARDFGDFFFDYWGQGTLVTVSS
VL: EIVLTQSPGTLSLSPGERATLSCRASQSVSSYLAWYQQKPGQAPRLLIYGVSSRATGIPDRFSGSGSGTDFTLTISRLEPEDFAVYYCQQYGSSPRTFGQGTKVEIK
B5: HbnC3t1p2_B10 (antibody, V domains shown)
VH: B4 VH with T28I, F99Y, F102Y
VL: B4 VL with Y49S, V51A, T56A, S76N, V104L
B6: CnC2t1p1_D6 (antibody, V domains shown)
VH: EVQLVESGGGLVQPGRSLRLSCTASGFTFGDYAMSWFRQAPGKGLEWVGFIRSKAYGGTTEYAASVKGRFTISRDDSKSIAYLQMNSLKTEDTAVYYCTRVRRLWFGSYYYGMDVWGQGTTVTVSS
VL: not shown
B7: CnC2t1p1_B4 (antibody, V domains shown)
VH: QVQLVQSGAEVKKPGASVKVSCKASGYTFTSYGISWVRQAPGQGLEWMGWISAYNGNTNYAQKLQGRVTMTTDTSTSTAYMELRSLRSDDTAVYYCARDGELLGWFDPWGQGTLVTVSS
VL: QSALTQPASVSGSPGQSITISCTGTSSDVGSYNLVSWYQQHPGKAPKLMIYEGSKRPSGVSNRFSGSKSGNTASLTISGLQAEDEADYYCCSYAGSSTWVFGGGTKLTVL
B8: CnC2t1p1_B10 (antibody, V domains shown)
VH: QVQLVQSGAEVKKPGSSVKVSCKASGGTFSSYAISWVRQAPGQGLEWMGGIIPIFGTANYAQKFQGRVTITADKSTSTAYMELSSLRSEDTAVYYCARVSGYDSSGYWGDYWGQGTLVTVSS
VL: EIVLTQSPATLSLSPGERATLSCRASQSVSSYLAWYQQKPGQAPRLLIYDASNRATGIPARFSGSGSGTDFTLTISSLEPEDFAVYYCQQRSNWPPALTFGGGTKVEIK
B9: HbnC3t1p1_F4 (antibody, V domains shown)
VH: QVQLVESGGGVVQPGRSLRLSCAATGFTFRRYGMHWVRQAPGKGLEWVAGILFDGSNKYYVDSVKGRFTISRDSSRNTLYLQLNSLRREDTAVYYCAKGGDYEWELLESWGQGTLVTVSS
VL: DIQMTQSPSTVSASVGDRVTITCRASQSIDNWLAWYQEKPGKAPKVLIYKASSLESGVPSRFSGRGSGTEFTLTISSLQPGDFATYYCQHYHSFPLTFGGGTKVDIK

Legend:
[1] = biological target: S1 (truncated S1 subunit); experiment: ELISA, coated truncated S1 [cont'd]
[2] = biological target: T1, receptor-binding domain (RBD) of the spike (S) protein of SARS-CoV-2 (SARS-CoV-2, UniProt P0DTC2 319-541); experiment: ELISA, coated RBD [cont'd]
T1 construct: also called soluble RBD

[3] = biological target: T1, receptor-binding domain (RBD) of the …; experiment: ELISA, coated RBD
[4] = biological target: S1 (truncated S1 subunit); experiment: ELISA, coated truncated S1

Binder | EC50 [1] | EC50 [2] | EC50 [3] | EC50 [4]
B1 | < 1000 µg/mL | < 1000 µg/mL |  | 
B2 | < 100 µg/mL | < 100 µg/mL |  | 
B3 | < 1000 µg/mL | < 1000 µg/mL |  | 
B4 | < 100 µg/mL | < 100 µg/mL |  | 
B5 | < 100 µg/mL | < 100 µg/mL |  | 
B6 |  |  | < 100 µg/mL | < 100 µg/mL
B7 |  |  | < 100 µg/mL | < 100 µg/mL
B8 |  |  | < 100 µg/mL | < 100 µg/mL
B9 | < 100 µg/mL | < 1000 µg/mL |  | 
